This is an account of results in patent US20220380801A1, “TRIPARTITE SYSTEMS FOR PROTEIN DIMERIZATION AND METHODS OF USE” (priority 2019, published 2022).

Like-named read-outs stand apart in the source and are kept apart here.

Holding throughout (settings): remark: other sources report otherwise
For experiment [1], the target named is T1, HCV NS3/4A PR (S139A):simeprevir complex (Hepatitis C virus subtype 1a).
Experiment [2] deals with T1, HCV NS3/4A PR (S139A):simeprevir …. Nature of the experiment: HTRF, with simeprevir. For orientation: TR-FRET usually uses a lanthanide donor and a delayed reading to cut background.
Experiment [3] has the same target. The source holds these as a separate data set.
Experiment [4] has the same target. The source holds these as a separate data set.
The target is the same in experiment [5]. Nature of the experiment: SPR Biacore 8K, PRSIM immobilised, protease flowed with 10 nM simeprevir. On the technique in general: SPR reads the build-up and loss of mass on a sensor chip optically.
The target is the same in experiment [6]. The source holds these as a separate data set.
For experiment [7] the target is unchanged. Nature of the experiment: phage ELISA. On the technique in general: An ELISA detects its analyte on a solid surface through an enzyme-linked reagent.
Experiment [8] shares this target. This is another data set of the same source.
The target of experiment [9] is HCV NS3/4A PR K136H (S139A background), in the presence of simeprevir (Hepatitis C virus subtype 1a).

B1: PRSIM_23 (designed binder)
chain: RLDAPSQIEVKDVTDTTALITWVDPRYDDIWWFELTYGIKDVPGDRTTIKLYLNDPYYSIGNLKPDTEYEVSLISYTGDSYSRSGSNPAKITFKTGL
As usually defined, the Kd is the concentration at which binding is half-saturated. A high value points to weaker binding. As usually defined, the koff is a measure of how fast the partners let go of each other. What is called kon is the rate constant with which the complex forms. Broadly, the EC50 (read off the curve) is the concentration at which the effect is half-maximal. For the molecule B1, the Simeprevir EC50 for induction of heterodimerisation in [1] was 4.53 nM; in experiment [3] it was 4.03 nM. The molecule also came in with an HTRF max. signal (% delta F) in [2] of 1570 % delta F. Besides, the Kd worked out at 5.4 nM in experiment [4] and 6.3 nM in [5]. In addition, in [5], the koff was 0.0318 s⁻¹. The same molecule showed a kon in experiment [5] of 5.03e+06 M⁻¹ s⁻¹. In addition, the EC50 (read off the curve) was found to be 2 nM in experiment [6], 3 nM in [8] and 4 nM in experiment [9]. In experiment [7], the Binding fold change [(HCV protease + Simeprevir binding)/HCV protease alone] was found to be 23.8 fold.
